Source: publication PMC8070380 (2021)

Key:
[1] = target: T1, A3Bctd-DM (L230K/F308K), residues 187-378 (human, UniProt Q9UH17 187-378, L230K | F308K); assay: SPR; association 300 s, dissociation 750 s
[2] = target: T1, A3Bctd-DM (L230K/F308K), residues …; assay: SPR; association 120 s, dissociation 300 s

T1 sequence (Q9UH17 187-378 L230K/F308K): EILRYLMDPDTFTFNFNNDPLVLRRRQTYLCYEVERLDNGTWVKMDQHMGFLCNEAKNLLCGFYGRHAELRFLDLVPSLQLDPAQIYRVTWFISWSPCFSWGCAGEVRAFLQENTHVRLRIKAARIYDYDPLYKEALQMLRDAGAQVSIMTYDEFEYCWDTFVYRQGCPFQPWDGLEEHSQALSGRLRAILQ

koff [1]: 0.000331 s⁻¹
koff [2]: 0.000779 s⁻¹
B1: scFv 5G7 (heavy chain Fv followed by light chain Fv, 16-residue His8 linker) (scFv, V domains shown)
VH: EVQLLESGGDLVKPGGSLKLSCAASGFTFSSYGMSWVRQTPDKRLEWVATISSGGSYTYYPDSVKGRFTISRDNAKNTLYLQMSSLKSEDTAMYYCARGGEGYYFDYWGQGTTLTVSS
VL: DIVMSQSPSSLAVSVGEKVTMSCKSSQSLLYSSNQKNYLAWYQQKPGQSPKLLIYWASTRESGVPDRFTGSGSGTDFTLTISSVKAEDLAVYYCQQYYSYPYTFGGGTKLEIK
